The text below walks through data of US7811569.

The experiment has as its target native MSP-3 antigen of Plasmodium falciparum clone 3D7 schizonts and merozoites (Plasmodium falciparum). Description: flow cytometry on ethanol-fixed permeabilized schizonts, FITC anti-human Fab.

control Fab against HibCP came in with a percent of events under the bar M1 of 2%.

Substance “control antibody against HibCP in the IgG1 format” came in with a percent of events under the bar M1 of 4%.
